Biological target: Taxol-stabilized microtubules (bovine brain tubulin) (bovine) (UniProt Q6B856)
Assay: TIRF microscopy of purified proteins on surface-bound microtubules (in vitro reconstitution); Taxol-stabilised biotinylated microtubules bound to NeutrAvidin coverslips; 100 nM CLASP2α-GFP or 100 nM GFP-L-TOG2-S with […] TRITC-phalloidin F-actin flowed in; imaging buffer with MRB80, Taxol, 0.2 mM ATP; 35°C; PCC after 10 min, time-lapse up to 40 min

Pearson correlation coefficient (PCC) of the CLASP2α-GFP and microtubule signals: 0.88
Substance: His-CLASP2α-EGFP-Strep (natural protein)
